Reference: US20260000736A1, “PURIFIED LACTOFERRIN COMPOSITIONS AND METHODS OF USE” (Lactea Therapeutics LLC, priority 2023, published 2026)

Legend:
[1] = test system: cow with a large infected chronic wound on its leg; experiment: Case study of a cow with a large infected chronic wound; type: in vivo; details: three daily treatments as freeze dried powder into the wound bed
Procedure: Lactea Lactoferrin (Lactea-Lf) was produced as described in the above examples and freeze-dried by lyophilization into a powder. Lactea-Lf was then administered as the freeze-dried powder in a variety of animal wound contexts.
For these daily treatments, Lf was applied once on each day to cover the open wound area.

[2] = test system: Staphylococcus epidermidis; experiment: Biofilm formation, crystal violet assay; type: cell-based; details: 24 hours of growth
E. coli = experiment: Zone of inhibition test; type: cell-based
Procedure: A zone of inhibition test was performed to assess bioactivity of API-E2 Lactoferrin. A plate with E. coli was cultured with 100 µg/mL, 10 g/mL, 1 g/mL, and 0.1 g/mL API-E2 Lactoferrin added to paper circles and allowed to diffuse out.

[3] = test system: ECM of primary buccal cells; experiment: ECM association by immunofluorescence in primary buccal cells; type: cell-based; details: 100 µg/mL for 1 hr at 37 C
Procedure: Primary buccal cells were next cultured according to a standard protocol (e.g., see Russo et al. Cytotechnology. 2016 October; 68(5): 2105-2114; herein incorporated by reference for all purposes). […] Immunofluorescence imaging was performed as previously described.

Staphylococcus aureus = experiment: Biofilm formation, crystal violet assay; type: cell-based; details: 24 hours of growth
E. coli 0157 [4] = experiment: Bacterial growth inhibition, OD600 after 16 h; type: cell-based; details: 1 mg/mL Lf, 16 h at 37° C.; for Relative Bacterial Growth, Replicate 1 / Relative Bacterial Growth, Replicate 2 / Relative Bacterial Growth, Replicate 3: 10∝CFU/mL E. coli 0157 in LB, OD600 relative to untreated
Procedure: As an analytical standard for the assessment of Lactoferrin (Lf) activity, 1 mg/mL Lf was added to 10∝CFU/mL E. coli 0157 in LB and incubated for 16 h at 37° C. Lactea Lactoferrin (Lactea-Lf) was produced as described in the above examples. Assessed were three independent lots of Lactea-Lf, impure samples which were generated by co-eluting Lactoperoxidase and Lactoferrin (co-elution), samples with degradation products generated by eluting Lactoferrin from old milk which was left for three days (Degradation Products), and a Sigma Aldrich Lactoferrin L9507 (Research Standard). As shown in FIG. 16 and quantified in Table 5, in the Lactea-Lf lots assessed, less than 5% the total growth of bacteria was observed as assessed by OD600 relative to the growth of untreated bacteria under these conditions. In this case, co-elution samples were samples which have a detectable peak of LPO as observable in MALDI-TOF M/S or HPLC. Degradation Products had identifiable degradation peaks as observed in HPLC or DSC.

E. coli 0157 [5] = experiment: Bacterial growth timecourse, OD600; type: cell-based; details: 1 mg/mL; for Bacterial Growth Timecourse, Replicate 1 / Bacterial Growth Timecourse, Replicate 2 / Bacterial Growth Timecourse, Replicate 3: OD600 relative to no treatment control at 24 hours
Procedure: For a more detailed comparison of Lactea-Lf antimicrobial activity relative to the Sigma Aldrich Lactoferrin, Lactea-Lf and Sigma Aldrich Lactoferrin were incubated at 1 mg/mL with for E. coli 0157 in LB seeded at 10∝CFU/mL. […] Results were quantified and reported as a percent of the OD600 of the no treatment control at 24 hours for all timepoints.

[6] = ITC-based assay, binding to LPS
[7] = test system: pigs with dermatome wounds; experiment: Pig dermatome wound healing model; type: in vivo; details: dermatome wounds 40×40 mm at a depth of 0.76 mm, topical treatment
Procedure: In a first assessment in a pig model setting, using a dermatome, six wounds were made on each pig with three on the left side and three on the right side of each pig covering a surface area of 40×40 mm at a depth of 0.76 mm. […] For each pig, the wounds on the left of the animal were treated while the wounds on the right wide were left as untreated controls. […] Standard of care was advised on by veterinarians with experience in dealing with wound management in a farm setting.

Pseudomonas aeruginosa = experiment: Biofilm formation, crystal violet assay; type: cell-based; details: 24 hours of growth
Cryptococcus neoformans = experiment: Biofilm formation, crystal violet assay; type: cell-based; details: 24 hours of growth
[8] = test system: salivary human bacteria (including Lactobacillus, Lactococcus, Streptococcus mutans, and Porphyromonas gingivalis); experiment: Poultry surface treatment, chicken breast inoculated with salivary bacteria; details: 3 mg/mL surface treatment, 6 days at 37° C.
Procedure: Chicken breasts were inoculated with salivary human bacteria in a slurry as described above in pH testing (including Lactobacillus, Lactococcus, Streptococcus mutans, and Porphyromonas gingivalis) and left for 6 days at 37° C.

Escherichia coli = experiment: Biofilm formation, crystal violet assay; type: cell-based; details: 24 hours of growth
[9] = test system: Staphylococcus epidermidis; experiment: Planktonic growth in culture, OD600; type: cell-based; details: 10-fold serial dilution of Lf, 18 hours
SARS-CoV-2 = SARS-CoV-2 Cytopathic Effect (CPE) reduction assay in Vero E6 cells; type: cell-based; details: Vero E6 cells, MOI of 0.001, neutral red, three days post-infection

B1: Lactea-Lf: bovine lactoferrin purified from raw untreated milk by cation exchange chromatography and filtration according to Example 1 (protein)
chain: APRKNVRWCTISQPEWFKCRRWQWRMKKLGAPSITCVRRAFALECIRAIAEKKADAVTLDGGMVFEAGRDPYKLRPVAAEIYGTKESPQTHYYAVAVVKKGSNFQLDQLQGRKSCHTGLGRSAGWVIPMGILRPYLSWTESLEPLQGAVAKFFSASCVPCIDRQAYPNLCQLCKGEGENQCACSSREPYFGYSGAFKCLQDGAGDVAFVKETTVFENLPEKADRDQYELLCLNNSRAPVDAFKECHLAQVPSHAVVARSVDGKEDLIWKLLSKAQEKFGKNKSRSFQLFGSPPGQRDLLFKDSALGFLRIPSKVDSALYLGSRYLTTLKNLRETAEEVKARYTRVVWCAVGPEEQKKCQQWSQQSGQNVTCATASTTDDCIVLVLKGEADALNLDGGYIYTAGKCGLVPVLAENRKTSKYSSLDCVLRPTEGYLAVAVVKKANEGLTWNSLKDKKSCHTAVDRTAGWNIPMGLIVNQTGSCAFDEFFSQSCAPGRDPKSRLCALCAGDDQGLDKCVPNSKEKYYGYTGAFRCLAEDVGDVAFVKNDTVWENTNGESTADWAKNLNREDFRLLCLDGTRKPVTEAQSCHLAVAPNHAVVSRSDRAAHVKQVLLHQQALFGKNGKNCPDKFCLFKSETKNLLFNDNTECLAKLGGRPTYEEYLGTEYVTAIANLKKCSTSPLLEACAFLTR
[1]
  healing of infected chronic wound: the wound was completely healed after it was checked after three weeks
[2]
  Inhibition of Biofilm Formation: Strong (Lf was deemed to have a strong activity if biofilms were eliminated or significantly reduced to less than 90% less than no treatment at concentrations of 10 mg/mL or less after 24 hours of growth)
E. coli; 10 µg/mL on paper circles
  zone of inhibition: complete inhibition
E. coli; 100 µg/mL on paper circles
  zone of inhibition: complete inhibition
E. coli; 0.1 g/mL on paper circles
  zone of inhibition: No zone of inhibition
E. coli; 1 g/mL on paper circles
  zone of inhibition: limited zone of inhibition
[3]
  ECM association of Lactoferrin (immunofluorescence imaging): strong binding along the ECM
Staphylococcus aureus
  Inhibition of Biofilm Formation: Strong (Lf was deemed to have a strong activity if biofilms were eliminated or significantly reduced to less than 90% less than no treatment at concentrations of 10 mg/mL or less after 24 hours of growth)
E. coli 0157 [4]; listed as Lactea-Lf Lot 1
  Relative Bacterial Growth, Replicate 1: 3.15E−09
  Relative Bacterial Growth, Replicate 2: 0.002228
  Relative Bacterial Growth, Replicate 3: 0.04512
E. coli 0157 [4]; listed as Lactea-Lf Lot 2
  Relative Bacterial Growth, Replicate 1: 0.01532
  Relative Bacterial Growth, Replicate 2: 0.005292
  Relative Bacterial Growth, Replicate 3: 0.01281
E. coli 0157 [4]; listed as Lactea-Lf Lot 3
  Relative Bacterial Growth, Replicate 1: 0.003621
  Relative Bacterial Growth, Replicate 2: 0.01059
  Relative Bacterial Growth, Replicate 3: 0.008635
E. coli 0157 [4]
  total growth of bacteria by OD600 relative to the growth of untreated bacteria: less than 5%
E. coli 0157 [5]; E. coli 0157 in LB
  inhibition of bacterial growth over time: near complete inhibition of bacterial growth up to 18 hours
  time at which bacterial growth became observable / evident: 21 h
E. coli 0157 [5]; 3 h
  Bacterial Growth Timecourse, Replicate 1: −0.00372
  Bacterial Growth Timecourse, Replicate 2: −0.00129
  Bacterial Growth Timecourse, Replicate 3: 0.02246
E. coli 0157 [5]; 6 h
  Bacterial Growth Timecourse, Replicate 1: 0.007916
  Bacterial Growth Timecourse, Replicate 2: 0.01196
  Bacterial Growth Timecourse, Replicate 3: 0.03279
E. coli 0157 [5]; 9 h
  Bacterial Growth Timecourse, Replicate 1: 0.01583
  Bacterial Growth Timecourse, Replicate 2: 0.02246
  Bacterial Growth Timecourse, Replicate 3: 0.02019
E. coli 0157 [5]; 12 h
  Bacterial Growth Timecourse, Replicate 1: 0.04443
  Bacterial Growth Timecourse, Replicate 2: 0.04136
  Bacterial Growth Timecourse, Replicate 3: 0.02633
E. coli 0157 [5]; 15 h
  Bacterial Growth Timecourse, Replicate 1: 0.04976
  Bacterial Growth Timecourse, Replicate 2: 0.05816
  Bacterial Growth Timecourse, Replicate 3: 0.04685
E. coli 0157 [5]; 18 h
  Bacterial Growth Timecourse, Replicate 1: 0.04152
  Bacterial Growth Timecourse, Replicate 2: 0.0399
  Bacterial Growth Timecourse, Replicate 3: 0.04281
E. coli 0157 [5]; 21 h
  Bacterial Growth Timecourse, Replicate 1: 0.1997
  Bacterial Growth Timecourse, Replicate 2: 0.1696
  Bacterial Growth Timecourse, Replicate 3: 0.106
E. coli 0157 [5]; 24 h
  Bacterial Growth Timecourse, Replicate 1: 0.3648
  Bacterial Growth Timecourse, Replicate 2: 0.2898
  Bacterial Growth Timecourse, Replicate 3: 0.2034
[6]
  binding to LPS: binds to LPS
  competition of LPS binding with HS binding: competitive with HS binding
[7]
  wound healing: healing occurred within one day
Pseudomonas aeruginosa
  Inhibition of Biofilm Formation: Strong (Lf was deemed to have a strong activity if biofilms were eliminated or significantly reduced to less than 90% less than no treatment at concentrations of 10 mg/mL or less after 24 hours of growth)
Cryptococcus neoformans
  Inhibition of Biofilm Formation: Strong (Lf was deemed to have a strong activity if biofilms were eliminated or significantly reduced to less than 90% less than no treatment at concentrations of 10 mg/mL or less after 24 hours of growth)
[8]
  bacterial growth on chicken breast: no detectable growth of any bacteria colonies
Escherichia coli
  Inhibition of Biofilm Formation: Strong (Lf was deemed to have a strong activity if biofilms were eliminated or significantly reduced to less than 90% less than no treatment at concentrations of 10 mg/mL or less after 24 hours of growth)
[9]
  Inhibition of Planktonic Growth: None
SARS-CoV-2
  EC50: 90 nM
